Source: US20250109209A1 (ABSCI, published 2025)
Positions count from the first letter of the chain named. Values belong to the binder of their own block, whether it stands above or below them.

Tests used:
human TL1A [1] = target: T1, human TL1A (human, UniProt O95150 72-251); test: SPR, Fab format, average
T1 construct: Antigen in SPR and ELISA; Also used here for places that print only 'TL1A' and for endogenous TL1A in human whole blood; also called TNFSF15
T1 sequence (looked up): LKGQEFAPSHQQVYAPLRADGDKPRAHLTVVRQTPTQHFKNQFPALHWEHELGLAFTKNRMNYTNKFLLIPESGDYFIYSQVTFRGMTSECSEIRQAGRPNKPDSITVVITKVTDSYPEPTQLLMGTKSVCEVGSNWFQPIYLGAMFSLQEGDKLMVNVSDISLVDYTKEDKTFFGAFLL

Cyno TL1A [2] = target: T2, Cyno TL1A (cyno, UniProt G7PRK8 72-251); test: SPR, Fab format, average
T2 sequence: T1 sequence (looked up) with F39L, I78V

human TL1A [3] = target: T1, human TL1A; test: SPR, Fab lysate, average
human TL1A [4] = target: T1, human TL1A; test: SPR, Fab format
human TL1A [5] = target: T1, human TL1A; test: selectivity ELISA: antibody pre-incubated with TL1A, inhibition of TL1A binding to plate-coated DR3
human TL1A [6] = target: T1, human TL1A; test: selectivity ELISA: antibody pre-incubated with TL1A, inhibition of TL1A binding to plate-coated DcR3
human TL1A [7] = target: T1, human TL1A; test: SPR, mAb format, average
mouse TL1A [8] = target: T3, mouse TL1A (mouse, UniProt Q5UBV8 76-252, limits assumed); test: SPR, mAb format, average
T3 sequence (looked up): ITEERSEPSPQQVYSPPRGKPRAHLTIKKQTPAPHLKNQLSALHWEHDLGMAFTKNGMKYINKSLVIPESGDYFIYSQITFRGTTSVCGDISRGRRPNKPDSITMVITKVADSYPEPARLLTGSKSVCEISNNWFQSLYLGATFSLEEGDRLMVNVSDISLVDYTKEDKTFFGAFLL

human TL1A [9] = target: T1, human TL1A; test: SPR, mAb format, average; remark: listed apart in the source
Cyno TL1A [10] = target: T2, Cyno TL1A; test: SPR, mAb format, average
FcRn = target: T4, FcRn (UniProt P55899 24-297; P61769 21-119); test: SPR, mAb format, FcRn at pH 6.0, average
T4 construct: also called neonatal receptor

human TL1A [11] = target: T1, human TL1A; test: SPR, mAb format, average; remark: listed apart in the source
mouse TL1A [12] = target: T3, mouse TL1A; test: SPR, mAb format

B3: RVT-3101 (antibody, V domains shown)
VH: QVQLVQSGAEVKKPGASVKVSCKASGYDFTYYGISWVRQAPGQGLEWMGWISTYNGNTHYARMLQGRVTMTTDTSTRTAYMELRSLRSDDTAVYYCARENYYGSGAYRGGMDVWGQGTTVTVSS
VL: EIVLTQSPATLSLSPGERATLSCRASQSVSSYLAWYQQKPGQAPRLLIYDASNRATGIPARFSGSGSGTDFTLTISSLEPEDFAVYYCQQRSNWPWTFGQGTKVEIK
IC50 (human TL1A [5]): 4.4 µg/mL
IC50 (human TL1A [6]): 0.8 µg/mL

B4: Antibody 16 (mAb format) (antibody, human IgG1, kappa, N297A)
heavy: QVQLQESGPGLVRPSQTLSLTCTVSGFDMQSTYMHWVRQRPGRGLEWMGRIEPAGGHTKYNPSLKSRVTITRDTSKNQVSLRLSSVTAADTAVYYCVRSGGLPDVWGQGSLVTVSSASTKGPSVFPLAPSSKSTSGGTAALGCLVKDYFPEPVTVSWNSGALTSGVHTFPAVLQSSGLYSLSSVVTVPSSSLGTQTYICNVNHKPSNTKVDKKVEPKSCDKTHTCPPCPAPELLGGPSVFLFPPKPKDTLMISRTPEVTCVVVDVSHEDPEVKFNWYVDGVEVHNAKTKPREEQYASTYRVVSVLTVLHQDWLNGKEYKCKVSNKALPAPIEKTISKAKGQPREPQVYTLPPSRDELTKNQVSLTCLVKGFYPSDIAVEWESNGQPENNYKTTPPVLDSDGSFFLYSKLTVDKSRWQQGNVFSCSVLHEALHSHYTQKSLSLSPGK
light: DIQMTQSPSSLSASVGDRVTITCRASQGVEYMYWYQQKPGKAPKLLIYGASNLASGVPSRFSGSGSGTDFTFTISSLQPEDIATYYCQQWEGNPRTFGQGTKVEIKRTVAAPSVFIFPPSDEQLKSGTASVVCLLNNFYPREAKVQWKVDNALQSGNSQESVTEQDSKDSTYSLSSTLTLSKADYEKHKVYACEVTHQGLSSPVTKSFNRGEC
notes: also called high priority lead mAb
Kd (human TL1A [7]): 0.339 nM
Kd (mouse TL1A [8]): 955 nM
Kd (human TL1A [9]): 0.339 nM
Kd (Cyno TL1A [10]): 0.09 nM
Kd (FcRn): 17.7 nM
Kd (human TL1A [11]): 0.339 nM

B7: Antibody 1 (mAb format) (antibody, human IgG1, kappa, N297A)
heavy: B4 heavy with M29I, S31D, V97A, R98S, L102M, V105L
light: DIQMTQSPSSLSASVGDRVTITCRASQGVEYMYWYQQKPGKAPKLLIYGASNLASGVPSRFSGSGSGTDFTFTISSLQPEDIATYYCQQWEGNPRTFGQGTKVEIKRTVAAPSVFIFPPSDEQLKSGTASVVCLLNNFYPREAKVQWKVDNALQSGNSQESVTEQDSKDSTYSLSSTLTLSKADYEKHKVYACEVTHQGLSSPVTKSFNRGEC
notes: also called Lead #1; high priority lead mAb
Kd (human TL1A [7]): 0.151 nM
Kd (mouse TL1A [8]): 74500 nM
Kd (human TL1A [9]): 0.151 nM
Kd (Cyno TL1A [10]): 0.139 nM
Kd (FcRn): 17.5 nM
Kd (human TL1A [11]): 0.151 nM

B8: Antibody 2 (mAb format) (antibody, human IgG1, kappa, N297A)
heavy: B4 heavy with F27L, M29P, Q30D, S31D, R98I
light: DIQMTQSPSSLSASVGDRVTITCRASSSVSYMYWYQQKPGKAPKLLIYATSNLASGVPSRFSGSGSGTDFTFTISSLQPEDIATYYCQQWEGNPRTFGQGTKVEIKRTVAAPSVFIFPPSDEQLKSGTASVVCLLNNFYPREAKVQWKVDNALQSGNSQESVTEQDSKDSTYSLSSTLTLSKADYEKHKVYACEVTHQGLSSPVTKSFNRGEC
notes: as for B4
Kd (human TL1A [7]): 0.195 nM
Kd (human TL1A [9]): 0.195 nM
Kd (Cyno TL1A [10]): 0.408 nM
Kd (FcRn): 17.1 nM
Kd (human TL1A [11]): 0.195 nM
binding result (mouse TL1A [12]): no binding

B9: Antibody 10 (mAb format) (antibody, human IgG1, kappa, N297A)
heavy: B4 heavy with F27L, M29P, Q30D, S31D, R98I
light: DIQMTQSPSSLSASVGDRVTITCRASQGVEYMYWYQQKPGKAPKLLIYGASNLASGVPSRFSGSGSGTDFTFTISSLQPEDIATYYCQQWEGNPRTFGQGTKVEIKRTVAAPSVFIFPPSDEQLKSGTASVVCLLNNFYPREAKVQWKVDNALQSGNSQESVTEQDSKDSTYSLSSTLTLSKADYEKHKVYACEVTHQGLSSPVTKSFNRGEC
notes: as for B4
Kd (human TL1A [7]): 0.482 nM
Kd (human TL1A [9]): 0.482 nM
Kd (Cyno TL1A [10]): 0.253 nM
Kd (FcRn): 22.1 nM
Kd (human TL1A [11]): 0.482 nM
binding result (mouse TL1A [12]): no binding

More lines, now with the values ahead:

Kd (human TL1A [1]): 0.72 nM
Kd (Cyno TL1A [2]): 5.14 nM
Kd (human TL1A [3]): 0.72 nM
Kd (human TL1A [4]): < 1 nM
B1: Antibody 19 (Fab format) (Fab, V domains shown)
VH: QVQLQESGPGLVRPSQTLSLTCTVSGFDITDTYMHWVRQRPGRGLEWMGRIEPAGGHTKYNPSLKSRVTITRDTSKNQVSLRLSSVTAADTAVYYCVRSGGLPDVWGQGSLVTVSS
VL: DIQMTQSPSSLSASVGDRVTITCRASQGVEYMYWYQQKPGKAPKLLIYYASNLASGVPSRFSGSGSGTDFTFTISSLQPEDIATYYCQQWEGNPRTFGQGTKVEIK
notes: High priority lead, Fab format

Kd (human TL1A [1]): 0.76 nM
Kd (Cyno TL1A [2]): 1.28 nM
Kd (human TL1A [3]): 0.76 nM
Kd (human TL1A [4]): < 1 nM
B2: Antibody 20 (Fab format) (Fab, V domains shown)
VH: B1 VH with T30Q, G55S, V97A, L102M, V105M
VL: B1 VL with E30M, Y49G
notes: as for B1

Kd (human TL1A [7]): 0.096 nM
Kd (mouse TL1A [8]): 739 nM
Kd (human TL1A [9]): 0.096 nM
Kd (Cyno TL1A [10]): 0.064 nM
Kd (FcRn): 18.2 nM
Kd (human TL1A [11]): 0.096 nM
B5: Antibody 9 (mAb format) (antibody, human IgG1, kappa, N297A)
heavy: B4 heavy with M29I, S31D, V105A
light: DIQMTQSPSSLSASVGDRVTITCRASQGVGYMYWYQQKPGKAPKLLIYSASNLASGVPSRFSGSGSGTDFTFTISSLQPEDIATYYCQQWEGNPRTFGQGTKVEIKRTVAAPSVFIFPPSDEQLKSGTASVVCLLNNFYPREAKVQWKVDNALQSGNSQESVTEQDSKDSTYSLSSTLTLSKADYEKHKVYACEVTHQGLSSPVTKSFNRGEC
notes: as for B4

Kd (human TL1A [7]): 0.051 nM
Kd (mouse TL1A [8]): 290 nM
Kd (human TL1A [9]): 0.051 nM
Kd (Cyno TL1A [10]): 0.034 nM
Kd (FcRn): 16.9 nM
Kd (human TL1A [11]): 0.051 nM
B6: Antibody 4 (mAb format) (antibody, human IgG1, kappa, N297A)
heavy: B4 heavy with Q30A, S31D, V105M
light: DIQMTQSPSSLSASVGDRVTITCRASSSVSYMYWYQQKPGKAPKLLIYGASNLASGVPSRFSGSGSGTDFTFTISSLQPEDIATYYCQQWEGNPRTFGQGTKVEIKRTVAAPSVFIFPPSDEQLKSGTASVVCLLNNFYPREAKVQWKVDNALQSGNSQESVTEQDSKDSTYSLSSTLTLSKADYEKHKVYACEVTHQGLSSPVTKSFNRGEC
notes: as for B4

Kd (human TL1A [7]): 0.073 nM
Kd (mouse TL1A [8]): 727 nM
Kd (human TL1A [9]): 0.073 nM
Kd (Cyno TL1A [10]): 0.038 nM
Kd (FcRn): 17.2 nM
Kd (human TL1A [11]): 0.073 nM
B10: Antibody 5 (mAb format) (antibody, human IgG1, kappa, N297A)
heavy: B4 heavy with S31D, G55S
light: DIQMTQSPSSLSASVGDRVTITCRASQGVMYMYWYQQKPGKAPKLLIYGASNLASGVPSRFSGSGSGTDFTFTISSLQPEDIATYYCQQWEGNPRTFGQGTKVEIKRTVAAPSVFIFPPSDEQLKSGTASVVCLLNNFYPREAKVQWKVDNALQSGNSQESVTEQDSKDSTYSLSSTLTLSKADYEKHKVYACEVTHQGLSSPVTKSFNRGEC
notes: as for B4

Kd (human TL1A [7]): 0.385 nM
Kd (human TL1A [9]): 0.385 nM
Kd (Cyno TL1A [10]): 0.154 nM
Kd (FcRn): 18.8 nM
Kd (human TL1A [11]): 0.385 nM
binding result (mouse TL1A [12]): no binding
B11: Antibody 13 (mAb format) (antibody, human IgG1, kappa, N297A)
heavy: B4 heavy with M29Y, S31D, E52D, G55S, V97A, R98V, L102M
light: B8 light with S27Q, S28G, S30E
notes: as for B4
